For series [1] the following is noted: as provided by manufacturer (Mimotopes); cited from earlier work.
Series [2] addresses T1, γD crystallin (Homo sapiens, UniProt P07320).
T1 sequence (P07320 1-174): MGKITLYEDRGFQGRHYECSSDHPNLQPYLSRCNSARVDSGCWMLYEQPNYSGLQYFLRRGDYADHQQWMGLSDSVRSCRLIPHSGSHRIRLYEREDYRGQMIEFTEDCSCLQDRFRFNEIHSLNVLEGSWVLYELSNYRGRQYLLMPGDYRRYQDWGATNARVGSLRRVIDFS
The series is described as follows: γD crystallin ThioflavinT fluorescence (fibrillization of γD crystallin). The note with it: 1:1 γD crystallin:peptide; for Δfluorescence (γD crystallin): ThioflavinT, 50° C. for 72 hours, no chaperone 888,803,840. The series is classed as biochemical. The method, then: γD crystallin Thioflaviin T fluorescence. γD crystallin fibrils were formed in a similar way to that of γ crystalline. Meehan et al., J Biol Chem 279: 3413-3419, 2004. Peptides were dissolved to […] IN tfe AND DILUTED to 0.91 mM stock solutions in 10% TFE, pH 2.0.
3.5 mg of ThioflavinT was dissolved in 100 μL of 50 mM Glycine pH 8.5. A stock solution of 1 mg/ml (0.22 mM) Aβ was prepared. 20 μl Aβ, 5 μl chaperone, 2 μl ThioflavinT was mixed with 73 μL 10% TFE, pH 2.0. Fluorescence was read using a Beckman Coultier DTX 880 multimode detector. Samples were heated at 50° C. for 72 hours and fluorescence was read again.
The fibrillization of γD crystallin was measured as fluorescence of the fluorescent dye ThioflavinT from solutions containing 1:1 monomeric molar ratio of γD crystallin:peptide. In the absence of fibrils ThioflavinT had little or no fluorescence. The fluorescence of the ThioflavinT bound to γD crystallin fibrils in the absence of any other molecule after 72 hrs was set to 100%. […] Fibril formation=ΔfluorescenceγD crystallin (with chaperone)*100/ΔfluorescenceγD crystallin (without chaperone).

Series [3] concerns the target Aβ (Homo sapiens, UniProt P05067). The series can be described thus: Aβ ThioflavinT fluorescence (fibrillization of Aβ). The series is classed as biochemical. The settings on record: 1:10 Aβ:peptide; for Δfluorescence (Aβ): ThioflavinT, 50° C. for 72 hours, no chaperone 1,324,974,048; for effect on the fibrillization of Aβ: ThioflavinT fluorescence after 72 hrs, comparison among αB crystallin and five peptides. The method, then: Aβ Thioflaviin T fluorescence. Aβ fibrils were grown in the presence and absence of αB crystallin and peptides in conditions similar to that previously described for the presence of αB crystallin. Bakthisaran et al., Biochem J, 2005. Peptides were dissolved to 9.1 mM in trifluorethanol (TFE) and diluted to 0.91 mM stock solutions in 50 mM PBS, 100 mM NaCl, pH 7.4. 3.5 mg of ThioflavinT was dissolved in 100 μl of 50 mM Glycine pH 8.5. A stock solution of 1 mg/ml (0.22 mM) Aβ was prepared. 20 μl Aβ, 50 μl chaperone, 2 μl ThioflavinT was mixed with 28 μl 50 mM PBS, 100 mM NaCl, pH 7.4. Fluorescence was read using a Beckman Coultier DTX 880 multimode detector. Samples were heated at 50° C. for 72 hours and fluorescence was read again.
The fibrillization of Aβ was measured as fluorescence of the fluorescent dye ThioflavinT from solutions containing 1:10 monomeric molar ratio of Aβ:peptide. In the absence of Aβfibrils, ThioflavinT had little or no fluorescence. The fluorescence of the ThioflavinT bound to Aβ fibrils in the absence of any other molecule after 72 hrs was set to 100%. […] Fibril formation=ΔfluorescenceAβ (with chaperone)*100/ΔfluorescenceAβ (without chaperone).

For series [4], the target named is amyloid beta (1-42) (Homo sapiens, UniProt P05067). The series can be described thus: Cu+++-induced aggregation of amyloid-beta (1-42) in vitro, light scattering. The series is classed as biochemical. The note with it: 100 mM Cu+++, 360 nm; for preventing the Cu+++-induced aggregation of amyloid-beta: 1:1 and 1:10 molar ratio of amyloid-beta to peptide; for preventing the Cu+++ induced aggregation of amyloid-beta: 10:1 molar ratio of amyloid-beta to peptide. The method, then: In vitro assays were also performed to measure the ability of the human αB crystallin derived peptides identified in Example 1 to inhibit aggregation of Cu^+++-induced amyloid beta (1-42) aggregation. Aggregation assays were performed using routine procedures, in the presence or absence of a synthesized peptide identified in Example 1, in the presence of 100 mM Cu^+++. Aggregation was measured spectrophotometrically as light scattering at a wavelength of 360 nm. Aggregated amyloid-beta was assigned a value of 100% aggregation and used to normalize aggregation in the presence of synthesize peptides.
Aggregation was measured spectrophotometrically as light scattering at a wavelength of 360 nm. Aggregated amyloid-beta was assigned a value of 100% aggregation and used to normalize aggregation in the presence of synthesize peptides. Aggregation was plotted as a bar graph with the standard error for duplicate experiments. The 1st vertical bar is the scattering measured for aggregated amyloid-beta (100% aggregation) in the presence of 100 mM Cu^+++. The 2nd-4th vertical bars is the scattering from amyloid-beta in the presence of wild type recombinant human αB crystallin. The 5th-13th vertical bars are the scattering of amyloid-beta in the presence of the synthetic peptides, DRFSVNLDVKHFS or LTITSSLSDGV or HGKHEERQDE at selected concentrations. A prefix of 10× represents a 10:1 molar concentration of amyloid-beta to either wild type αB crystallin or its peptides. A prefix of 1X represents a 1:1 molar concentration of amyloid-beta to either wt αB crystallin or its peptides. A prefix of 0.1× represents a 1:10 molar concentration of amyloid-beta to either wt αB crystallin or its peptides.

Series [5] relates to βL crystallin. The series is described as follows: Chaperone assay, thermal aggregation of βL crystallin. The series is classed as biochemical. The settings on record: light scattering at λ=340 nm; 1:10 target protein:peptide; comparison among five peptides. The method, then: Chaperone Assays. Chaperone assays of the five peptides were performed using previously established methods with minor modifications. Muchowski et al., J Mol Biol 289: 397-411, 1999. A 1:1 monomeric molar ratio of chaperone: target protein was determined to be the optimum ratio and all subsequent chaperone assays of the β3 mutants were performed in triplicate and at a 1:1 monomeric molar ratio of chaperone: target protein in a 96-well ELISA micro-titer plate. […] of the chaperone and βL crystallin were mixed in a total volume of 200 μL buffer (5 mM PBS, pH 7.0). Light scattering at λ=340 nm was measured using a Multiskan MCC/340 plate reader before heating (time=0). After the first reading, the plate was heated at 50° C. and readings were taken at fifteen minute intervals for one hour.
The ability of the peptides to suppress the thermal aggregation of βL crystallin was measured spectrophotometrically as light scattering at λ=340 nm from solutions containing 1:10 monomeric molar ratio of target protein: peptide.

In series [6] the target is T2, ADH (Equus caballus, UniProt P00327).
T2 construct: purchased
The series can be described thus: Chaperone assay, thermal aggregation of ADH. The series is classed as biochemical. The settings on record: 50:1 molar ratio of peptide:ADH; 50° C., sixty minutes; light scattering λ=340 nm; no peptide = 0% protection. The method, then: (§1) The chaperone activity of the peptides was measured as their ability to protect against the thermal aggregation of three chaperone target proteins βH crystallin, ADH and CS in chaperone assays performed at 50° C. (FIG. 19). A non-interactive αB crystallin sequence 111HGKHEERQDE120 was used as the negative control in the chaperone assays (FIG. 19). Based on near and far UVCD, the three target proteins unfolded in the order: CS>>>ADH>>βH crystallin when they were heated at 50° C. for sixty minutes (FIGS. 15 and 16). The thermal aggregation of βH crystallin, ADH and CS was measured as light scattering at λ=340 nm in the presence and absence of each peptide. The chaperone activity of each peptide was calculated as percent protection in which the aggregation of each target protein in the absence of any peptides was set at 0% protection (FIG. 19). The interactive peptides 73DRFSVNLDVKHFS85 and 131LTITSSLSDGV141 were effective inhibitors of aggregation of all three chaperone target proteins.
(§2) A (top left): thermal aggregation of chaperone target proteins βH crystallin, ADH and CS in the absence of peptides was measured as light scattering at λ=340 nm. Each target protein was heated at 50° C. for sixty minutes in the absence or presence of one of the peptides. […] The chaperone activity of each peptide was calculated as percent protection in which the aggregation of each target protein in the absence of any peptides was set at 0% protection. The ability of the 73DRFSVNLDVKHFS85, 131LTITSSLSDGV141 and 111HGKHEERQDE120 to protect against the thermal aggregation of βH crystallin (B: top right), ADH (C: bottom left) and CS (D: bottom right) were tested in vitro (vertical bars). […] A 10:1 molar ratio of peptide:target protein was sufficient in conferring significant protection against the aggregation of CS by 73DRFSVNLDVKHFS85 and 131LTITSSLSDGV141.

In series [7] the test system is βH crystallin. The series is described as follows: Chaperone assay, thermal aggregation of βH crystallin. The note with it: 50:1 molar ratio of peptide:βH crystallin; 50° C., sixty minutes; light scattering λ=340 nm; no peptide = 0% protection. The series is classed as biochemical. The method, then: as §1, §2
For series [8], the target named is T3, CS (Sus scrofa, UniProt P00889).
T3 construct: purchased
T3 sequence (P00889 28-464): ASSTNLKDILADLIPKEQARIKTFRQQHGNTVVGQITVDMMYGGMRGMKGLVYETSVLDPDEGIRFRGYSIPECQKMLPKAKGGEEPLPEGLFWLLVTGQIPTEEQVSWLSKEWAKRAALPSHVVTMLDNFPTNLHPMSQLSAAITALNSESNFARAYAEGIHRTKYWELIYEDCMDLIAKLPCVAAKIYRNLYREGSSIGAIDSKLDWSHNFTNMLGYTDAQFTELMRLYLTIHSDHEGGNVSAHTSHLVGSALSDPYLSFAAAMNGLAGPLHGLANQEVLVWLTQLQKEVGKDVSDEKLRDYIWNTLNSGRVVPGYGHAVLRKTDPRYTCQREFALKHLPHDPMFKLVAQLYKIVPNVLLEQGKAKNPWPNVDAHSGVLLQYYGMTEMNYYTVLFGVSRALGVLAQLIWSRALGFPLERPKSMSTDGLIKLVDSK
The series is described as follows: Chaperone assay, thermal aggregation of CS. The note with it: 10:1 molar ratio of peptide:CS; 50° C., sixty minutes; light scattering λ=340 nm; no peptide = 0% protection. The series is classed as biochemical. The method, then: as §1
A (top left): thermal aggregation of chaperone target proteins βH crystallin, ADH and CS in the absence of peptides was measured as light scattering at λ=340 nm. […] The chaperone activity of each peptide was calculated as percent protection in which the aggregation of each target protein in the absence of any peptides was set at 0% protection. […]

T2 sequence (P00327 whole entry): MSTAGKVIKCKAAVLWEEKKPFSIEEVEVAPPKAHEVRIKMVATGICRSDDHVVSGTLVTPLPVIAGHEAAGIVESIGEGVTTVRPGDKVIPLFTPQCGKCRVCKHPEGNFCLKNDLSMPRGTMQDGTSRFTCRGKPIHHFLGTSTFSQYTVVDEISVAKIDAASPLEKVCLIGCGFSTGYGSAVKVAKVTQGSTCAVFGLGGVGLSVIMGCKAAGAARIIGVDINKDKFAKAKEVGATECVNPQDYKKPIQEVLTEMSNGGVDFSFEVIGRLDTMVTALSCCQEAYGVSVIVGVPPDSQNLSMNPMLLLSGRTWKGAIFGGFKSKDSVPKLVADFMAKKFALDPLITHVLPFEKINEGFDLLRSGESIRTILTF

For the substance HFSPEELK [Peptide 42], in series [1], the Hydrophobicity was 0.25.
As to LTITSSLSDGV, the “Δfluorescence (γD crystallin)” value in series [2] is on record as 675,352,992. In series [3], the “Δfluorescence (Aβ)” value was 352,301,312. In series [4], the “preventing the Cu+++-induced aggregation of amyloid-beta” value is listed as “equally effective” and the “preventing the Cu+++ induced aggregation of amyloid-beta” value is given as “less effective”. Further, in series [5], the “effect on the thermal aggregation of βL crystallin (chaperone activity)” value (“effect on the thermal aggregation” for short) is “slightly lower than the HG peptide”. Also, in series [6], the “percent protection against thermal aggregation of ADH” value (from here on “percent protection … of ADH”) is recorded as “approximately 30%”. Also, the “percent protection against thermal aggregation of βH crystallin” value (“percent protection … of βH crystallin” below) in series [7] is on record as “approximately 30%”.
As for “αB crystallin: wild type recombinant human αB crystallin, a small heat shock protein and molecular chaperone”, the “effect on the fibrillization of γD crystallin” value in series [2] (ThioflavinT fluorescence after 72 hrs, comparison among αB crystallin and five peptides) is reported as “weakest effect”. In addition, the “Δfluorescence (γD crystallin)” value in series [2] is reported as 1,079,141,056. In addition, in series [3], the “Δfluorescence (Aβ)” value is given as 318,471,040.
Turning to DRFSVNLDVKHFS, in series [3], the “effect on the fibrillization of Aβ” value is listed as “strongest effect”. In series [4], the “preventing the Cu+++-induced aggregation of amyloid-beta” value is listed as “equally effective” and the “preventing the Cu+++ induced aggregation of amyloid-beta” value is recorded as “less effective”. Also, the “effect on the thermal aggregation” value in series [5] is “slightly lower than the HG peptide”. For the same substance, the “percent protection … of ADH” value in series [6] is “approximately 30%”. Besides, the “percent protection … of βH crystallin” value in series [7] was “approximately 30%”.
Take HGKHEERQDE: the “effect on the fibrillization of Aβ” value in series [3] was “weakest effect”. In addition, in series [4], the “preventing the Cu+++-induced aggregation of amyloid-beta” value is reported as “equally effective” and the “preventing the Cu+++ induced aggregation of amyloid-beta” value is listed as “less effective”. Further, the “effect on the thermal aggregation” value in series [5] is listed as “strongest effect”. Further, the “percent protection … of ADH” value in series [6] is on record as “No protection”. In addition, the “percent protection against thermal aggregation of CS” value in series [8] is listed as “partial protection”. Also, the “percent protection … of βH crystallin” value in series [7] is reported as “No protection”.

The record behind these values is patent publication US20080227700A1, “Compositions and Methods for Treatment of Protein Misfolding and Protein Aggregation Diseases” (priority 2004, published 2008).
